Data: IntAct's records for PubMed 17392788

B1: "Lethal(2) giant larvae protein homolog SRO7" (Saccharomyces cerevisiae), Q12038 (parent)
chain: MFGSKRLKNVKEAFKSLKGQNSETPIENSKASFKSKNSKTSTISKDAKSSSSLKIPISSNNKNKIFSLAETNKYGMSSKPIAAAFDFTQNLLAIATVTGEVHIYGQQQVEVVIKLEDRSAIKEMRFVKGIYLVVINAKDTVYVLSLYSQKVLTTVFVPGKITSIDTDASLDWMLIGLQNGSMIVYDIDRDQLSSFKLDNLQKSSFFPAARLSPIVSIQWNPRDIGTVLISYEYVTLTYSLVENEIKQSFIYELPPFAPGGDFSEKTNEKRTPKVIQSLYHPNSLHIITIHEDNSLVFWDANSGHMIMARTVFETEINVPQPDYIRDSSTNAAKISKVYWMCENNPEYTSLLISHKSISRGDNQSLTMIDLGYTPRYSITSYEGMKNYYANPKQMKIFPLPTNVPIVNILPIPRQSPYFAGCHNPGLILLILGNGEIETMLYPSGIFTDKASLFPQNLSWLRPLATTSMAASVPNKLWLGALSAAQNKDYLLKGGVRTKRQKLPAEYGTAFITGHSNGSVRIYDASHGDIQDNASFEVNLSRTLNKAKELAVDKISFAAETLELAVSIETGDVVLFKYEVNQFYSVENRPESGDLEMNFRRFSLNNTNGVLVDVRDRAPTGVRQGFMPSTAVHANKGKTSAINNSNIGFVGIAYAAGSLMLIDRRGPAIIYMENIREISGAQSACVTCIEFVIMEYGDDGYSSILMVCGTDMGEVITYKILPASGGKFDVQLMDITNVTSKGPIHKIDAFSKETKSSCLATIPKMQNLSKGLCIPGIVLITGFDDIRLITLGKSKSTHKGFKYPLAATGLSYISTVEKNNDRKNLTVIITLEINGHLRVFTIPDFKEQMSEHIPFPIAAKYITESSVLRNGDIAIRVSEFQASLFSTVKEQDTLAPVSDTLYINGIRIPYRPQVNSLQWARGTVYCTPAQLNELLGGVNRPASKYKESIIAEGSFSERSSDDNNANHPEHQYTKPTRKGRNSSYGVLRNVSRAVETRWDAVEDRFNDYATAMGETMNEAVEQTGKDVMKGALGF

Variants of: B1
Conditions: with sec9_yeast SEC9, P40357
Sequence of sec9_yeast SEC9, P40357 (P40357 whole entry): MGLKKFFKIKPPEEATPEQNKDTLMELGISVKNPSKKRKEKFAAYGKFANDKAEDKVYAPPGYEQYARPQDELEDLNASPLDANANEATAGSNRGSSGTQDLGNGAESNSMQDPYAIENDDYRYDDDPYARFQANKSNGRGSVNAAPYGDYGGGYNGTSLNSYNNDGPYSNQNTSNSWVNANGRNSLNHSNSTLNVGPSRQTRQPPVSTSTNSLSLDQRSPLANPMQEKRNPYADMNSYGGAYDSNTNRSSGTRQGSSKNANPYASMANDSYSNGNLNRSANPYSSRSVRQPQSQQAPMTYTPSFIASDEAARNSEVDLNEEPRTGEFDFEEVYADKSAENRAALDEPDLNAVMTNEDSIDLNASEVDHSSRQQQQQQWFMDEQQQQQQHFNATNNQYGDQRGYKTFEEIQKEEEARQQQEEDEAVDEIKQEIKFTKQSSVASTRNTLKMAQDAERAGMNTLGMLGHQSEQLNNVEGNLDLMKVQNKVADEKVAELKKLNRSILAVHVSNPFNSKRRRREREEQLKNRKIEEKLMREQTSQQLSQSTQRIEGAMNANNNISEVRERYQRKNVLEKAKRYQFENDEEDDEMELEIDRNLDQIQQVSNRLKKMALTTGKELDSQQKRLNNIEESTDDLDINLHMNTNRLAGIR

Variant | effect of a mutation on the interaction
E562A | decreasing interaction strength
R664A | decreasing interaction strength
Y700A | disrupting interaction strength
P721A | disrupting interaction strength
M764A | decreasing interaction strength
